Protein stability index data for 37 sequences are collected here from the supplement of paper PMC10567573.

This series can be described thus: protein stability index of a GFP-peptide fusion (GPS, HEK-293T) (PSI 1-6); higher = more stable. The settings on record: c terminus: a fixed tail appended.

± gives the standard deviation.
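Note: 24-mer peptide tiles fused after GFP, lentivirally expressed, FACS-sorted into six equal bins by GFP/DsRed ratio, decoded by Illumina sequencing, PSI is the read-weighted mean bin number.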

For the sequence LEEMILPLMVASAQSGERECHIVV [BTBD10], the protein stability index runs as follows: (treatment: DMSO) 2.35 ± 0.79; (treatment: MLN4924 1 uM, 8 h) 2.48 ± 0.48.

In the case of LEGSHDTANCEACTLGICGQGLKS [RTP4], the protein stability index stood at 5.13 ± 0.25 (treatment: DMSO) and 5.11 ± 0.12 (treatment: MLN4924 1 uM, 8 h).

Turning to LEKEREKEISDDEAEEEKGEKEEE [HSP90AB1], the protein stability index is 5.66 ± 0.34 (treatment: DMSO) and 5.74 ± 0.21 (treatment: MLN4924 1 uM, 8 h).

LERKCEKRSVYIDARDEELEKDTM [ZC3H15]: the protein stability index amounted to 4.93 ± 0.49 (treatment: DMSO) and 4.9 ± 0.075 (treatment: MLN4924 1 uM, 8 h).

Regarding LGALKPLPACEFEMGGSEGIVESI [NETO1], the protein stability index is, setting by setting: (treatment: DMSO) 4.28 ± 0.2; (treatment: MLN4924 1 uM, 8 h) 4.31 ± 0.25.

With LGFGSAKEAVTGSRLGQGIGPIHL [LOXL2], the protein stability index is, setting by setting: (treatment: DMSO) 2.7 ± 0.26; (treatment: MLN4924 1 uM, 8 h) 2.64 ± 0.073.

On to LGSIFQQLAHMVKEQEETIQRIDE [STX5], for which the protein stability index is 4.48 ± 0.2 (treatment: DMSO) and 4.26 ± 0.098 (treatment: MLN4924 1 uM, 8 h).

Sequence LGSPQHSPSTRGSPNRSLPSPGVL [ATF4] yielded a protein stability index (treatment: DMSO) of 4.45 ± 0.23 and a protein stability index (treatment: MLN4924 1 uM, 8 h) of 4.45 ± 0.22.

With LGVAVAVLGGFLYAVGGSDGTSPL [KLHL20], the protein stability index is, setting by setting: (treatment: DMSO) 2.86 ± 0.64; (treatment: MLN4924 1 uM, 8 h) 2.85 ± 0.51.

With LGWGPTALRDVPFSALYWFNYELV [SLC25A39], the protein stability index stood at 2.9 ± 0.54 (treatment: DMSO) and 2.61 ± 0.41 (treatment: MLN4924 1 uM, 8 h).

For the sequence LHTDVGSVRMRRAEKSVAPSNTGS [NEK8], the protein stability index by setting is: (treatment: DMSO) 4.58 ± 0.22; (treatment: MLN4924 1 uM, 8 h) 4.73 ± 0.14.

On to LIDHLALRARNYEYLIRLFQEWEA [TCF25], for which the protein stability index reads like this: (treatment: DMSO) 2.1 ± 0.27; (treatment: MLN4924 1 uM, 8 h) 2.43 ± 0.36.

As to LIKFQVGLKKLNLHEEEHVLLMAI [VDR], the protein stability index is, setting by setting: (treatment: DMSO) 2.8 ± 0.62; (treatment: MLN4924 1 uM, 8 h) 2.73 ± 0.78.

With LIKNNSLPRKRQSLRSSSSKLAQL [INTS3], the protein stability index runs as follows: (treatment: DMSO) 2.99 ± 0.27; (treatment: MLN4924 1 uM, 8 h) 3.31 ± 0.17.

Regarding LIYMVTIMGNLLIIVTIMASQSLG [OR4A15], the protein stability index was determined as 3.18 ± 0.43 (treatment: DMSO) and 3.1 ± 0.29 (treatment: MLN4924 1 uM, 8 h).

As to LKAHAEEKPPSGTKEKKHQCDHCE [PLAGL1], the protein stability index reads like this: (treatment: DMSO) 5.38 ± 0.22; (treatment: MLN4924 1 uM, 8 h) 5.46 ± 0.098.

Take LKELQAIAERLGCTLPQLAIAWCL [KCNAB2]: the protein stability index runs as follows: (treatment: DMSO) 2.29 ± 0.74; (treatment: MLN4924 1 uM, 8 h) 2.27 ± 0.25.

As to LLDFMCRIIPNFYPPLEGHVRQGV [INTS3], the protein stability index was determined as 3.31 ± 0.42 (treatment: DMSO) and 2.84 ± 0.41 (treatment: MLN4924 1 uM, 8 h).

LLDKTCDQVMEFSWSALWNITDET [ZER1]: the protein stability index runs as follows: (treatment: DMSO) 2.37 ± 0.28; (treatment: MLN4924 1 uM, 8 h) 2.35 ± 0.34.

As for LLFKLVAPVTFRHHRYDDLVRTLY [CPN1], the protein stability index is, setting by setting: (treatment: DMSO) 2.65 ± 0.63; (treatment: MLN4924 1 uM, 8 h) 2.83 ± 0.56.

Consider LLKTPWRAASAMQFFTKGYQETIS [GCH1], for which the protein stability index is 2.19 ± 0.28 (treatment: DMSO) and 2.44 ± 0.18 (treatment: MLN4924 1 uM, 8 h).

Take LLLVAKMSVGHLRLLSHDQVAMPY [JAGN1]: the protein stability index runs as follows: (treatment: DMSO) 3.06 ± 0.46; (treatment: MLN4924 1 uM, 8 h) 2.81 ± 0.21.

As for LLNQQSLKRSANQMGVSAKRRPKA [MED27], the protein stability index amounted to 3.47 ± 0.3 (treatment: DMSO) and 3.82 ± 0.24 (treatment: MLN4924 1 uM, 8 h).

Take LLPDQARGEVPWSPELGRPHDRSQ [ZNF263]: the protein stability index (treatment: DMSO) is 4.58 ± 0.17 and the protein stability index (treatment: MLN4924 1 uM, 8 h) was 4.86 ± 0.091.

Consider LLRPPVAAFVRAQADLLAHLVPEP [DNAAF3], for which the protein stability index is, setting by setting: (treatment: DMSO) 2.23 ± 0.31; (treatment: MLN4924 1 uM, 8 h) 2.33 ± 0.31.

Under “treatment: MLN4924 1 uM, 8 h”, LMDYIGINLATMNSCINPIALYFV [EDNRA] came in with a protein stability index of 3.08 ± 0.24.

Turning to LMIIVCIDQWKNKIWPEIKVPRPD [RETREG3], the protein stability index reads like this: (treatment: DMSO) 2.81 ± 0.43; (treatment: MLN4924 1 uM, 8 h) 2.82 ± 0.45.

Sequence LMVHGNERFIQYLASRNTLFNLSN [SNAP91] displayed a protein stability index (treatment: DMSO) of 2.67 ± 0.54 and a protein stability index (treatment: MLN4924 1 uM, 8 h) of 2.3 ± 0.7.

Take LNWKMTLCLLVAWSIVGMAVVKGI [SLC6A17]: the protein stability index reads like this: (treatment: DMSO) 2.61 ± 0.67; (treatment: MLN4924 1 uM, 8 h) 2.45 ± 0.48.

As for LPDLCLCRVFWWLGDRDRSRAALV [FBXO39], the protein stability index is, setting by setting: (treatment: DMSO) 2.5 ± 0.51; (treatment: MLN4924 1 uM, 8 h) 2.76 ± 0.7.

Regarding LPETLNSPLLETFSDLQVYSYRRL [SLC22A15], the protein stability index by setting is: (treatment: DMSO) 2.4 ± 0.1; (treatment: MLN4924 1 uM, 8 h) 2.81 ± 0.27.

Turning to LPHGVNFQDAIFPDTQENRRMFSS [CCDC3], the protein stability index reads like this: (treatment: DMSO) 3.91 ± 0.18; (treatment: MLN4924 1 uM, 8 h) 3.92 ± 0.097.

As to LPLALVTWVPMFLSTLLAPYQALR [SOAT2], the protein stability index was found to be 2.93 ± 0.6 (treatment: DMSO) and 2.95 ± 0.35 (treatment: MLN4924 1 uM, 8 h).

On to LPPKVGSFQLFVEGYKDADYWLRR [PI4K2A], for which the protein stability index (treatment: DMSO) stood at 2.41 ± 0.34 and the protein stability index (treatment: MLN4924 1 uM, 8 h) came to 2.46 ± 0.17.

Turning to LPSNLLKKFRSSTSSSLGDKSEYL [KCNA4], the protein stability index was 3.11 ± 0.084 (treatment: DMSO) and 3.23 ± 0.37 (treatment: MLN4924 1 uM, 8 h).

For LPSVPVSVPASDPRSCSSGPAGPY [PLEKHN1], the protein stability index was found to be 4.35 ± 0.21 (treatment: DMSO) and 4.39 ± 0.17 (treatment: MLN4924 1 uM, 8 h).

LPTDAVDCMSRELVSLTSRNPDQR [FBXO34] displayed a protein stability index (treatment: DMSO) of 4.85 ± 0.25 and a protein stability index (treatment: MLN4924 1 uM, 8 h) of 4.9 ± 0.17.
